From article PMC3536700, “Structural Basis for Feed-Forward Transcriptional Regulation of Membrane Lipid Homeostasis in Staphylococcus aureus”

Assays:
[1] = molecular target: T1, SaFapR (Staphylococcus aureus RN4220, UniProt Q2FZ56 1-190); assay: ITC; first dimer, sequential binding model, 25 C; ITC: 50 mM Tris-HCl pH 8, 150 mM NaCl, 25 C; EMSA: 20 mM Tris-HCl pH 8, 350 mM NaCl, 10 mM MgCl2, 5 mM DTT, 15 min room temperature, native 5% PAGE in 45 mM Tris-borate pH 8, 1 mM EDTA; conditions: protein: recombinant; tags: N-terminal His-tag removed with TEV protease; chain copies: 2
T1 sequence: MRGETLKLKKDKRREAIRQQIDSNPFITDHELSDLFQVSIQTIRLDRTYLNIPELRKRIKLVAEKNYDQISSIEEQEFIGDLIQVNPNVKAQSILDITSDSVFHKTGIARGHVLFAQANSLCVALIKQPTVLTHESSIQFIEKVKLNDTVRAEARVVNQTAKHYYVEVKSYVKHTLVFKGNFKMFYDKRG

[2] = molecular target: T1, SaFapR; assay: ITC; second dimer, sequential binding model, 25 C; ITC: 50 mM Tris-HCl pH 8, 150 mM NaCl, 25 C; EMSA: 20 mM Tris-HCl pH 8, 350 mM NaCl, 10 mM MgCl2, 5 mM DTT, 15 min room temperature, native 5% PAGE in 45 mM Tris-borate pH 8, 1 mM EDTA; conditions: protein: recombinant; tags: N-terminal His-tag removed with TEV protease; chain copies: 2

B1: PfapR operator 40 bp (dsDNA)
DNA 1: GCCAATTATATACTACTATTAGTACCTAGTCTTAATTCCG
DNA 2: CGGAATTAAGACTAGGTACTAATAGTAGTATATAATTGGC
Binder B1 has a Kd [1] of 0.5 ± 0.1 nM and a Kd [2] of 51 ± 8 nM.
